The substances below were run against C-terminal vinculin homology domain of α-catenin (α-catenin635–906) (UniProt P35221) (assay: fluorescence polarisation; fluorescence anisotropy of FITC-labelled EspB fragments (fluorescein at the N-terminus) and of EspB with α-catenin635–906; KD by nonlinear curve fitting; buffer and temperature not stated).
Sequence of UniProt P35221 (P35221 635-906): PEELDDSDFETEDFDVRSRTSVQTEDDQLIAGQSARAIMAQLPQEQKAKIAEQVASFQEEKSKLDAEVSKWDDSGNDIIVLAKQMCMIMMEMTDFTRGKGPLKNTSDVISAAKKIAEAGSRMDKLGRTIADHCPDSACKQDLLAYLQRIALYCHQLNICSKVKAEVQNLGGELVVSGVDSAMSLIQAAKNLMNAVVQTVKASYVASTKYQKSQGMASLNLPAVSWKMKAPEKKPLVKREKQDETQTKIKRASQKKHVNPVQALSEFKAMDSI

EspB41–70 (peptide) and “EspB from enterohaemorrhagic E. coli (EHEC) (natural protein)” are within 1.5-fold of each other in Kd: 2.5 µM for the first, 2.9 µM for the second.

Going from EspB41–60 (peptide) to EspB51–70 (peptide), the Kd falls from 23 µM to 12 µM (1.9-fold).
